Source: US10370642B2, “Hematopoietic progenitor cell populations having affinity for E-selectin / L-selectin” (priority 2000, dated 2019)

T1: L-selectin (Rattus norvegicus, UniProt P30836)
T1 construct: L-selectin naturally expressed on leukocytes; endogenous in cells; host or cells: lymphocytes (rat thoracic duct lymphocytes; human PBMC also prepared)
T1 sequence (P30836 39-372): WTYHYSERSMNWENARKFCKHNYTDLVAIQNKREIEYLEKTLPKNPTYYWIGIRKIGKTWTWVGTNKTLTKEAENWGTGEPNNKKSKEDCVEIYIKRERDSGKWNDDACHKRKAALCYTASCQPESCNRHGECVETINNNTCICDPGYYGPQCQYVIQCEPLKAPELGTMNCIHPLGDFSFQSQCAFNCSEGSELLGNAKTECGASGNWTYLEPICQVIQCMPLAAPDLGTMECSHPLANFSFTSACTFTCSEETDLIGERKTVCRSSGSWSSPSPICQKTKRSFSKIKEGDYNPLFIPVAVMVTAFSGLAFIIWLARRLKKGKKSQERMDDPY

T2: E-selectin (Homo sapiens, UniProt P16581)
T2 construct: stably transfected with full-length cDNA encoding human E-selectin; expressed in transfected cells
T2 sequence (P16581 22-610): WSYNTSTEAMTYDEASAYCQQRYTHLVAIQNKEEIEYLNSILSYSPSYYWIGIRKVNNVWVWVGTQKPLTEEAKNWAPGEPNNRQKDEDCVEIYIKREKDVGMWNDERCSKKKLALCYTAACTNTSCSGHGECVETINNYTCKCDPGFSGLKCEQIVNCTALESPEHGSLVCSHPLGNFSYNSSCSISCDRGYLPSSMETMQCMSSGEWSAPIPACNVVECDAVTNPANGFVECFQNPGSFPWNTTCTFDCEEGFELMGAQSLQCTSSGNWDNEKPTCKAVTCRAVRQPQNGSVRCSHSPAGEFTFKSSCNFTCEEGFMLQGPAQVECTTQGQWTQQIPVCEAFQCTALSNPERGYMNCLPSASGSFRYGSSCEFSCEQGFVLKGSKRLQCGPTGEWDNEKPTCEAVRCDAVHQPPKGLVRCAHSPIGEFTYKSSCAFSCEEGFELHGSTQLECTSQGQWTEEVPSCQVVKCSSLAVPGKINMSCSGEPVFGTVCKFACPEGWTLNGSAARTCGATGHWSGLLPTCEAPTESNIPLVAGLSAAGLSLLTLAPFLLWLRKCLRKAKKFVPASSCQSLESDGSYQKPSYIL

B1: L-selectin (Molecular Control): L-selectin (LAM 1-3) immunoprecipitated from KG1a cells, negative molecular control (protein)
chain: WTYHYSEKPMNWQRARRFCRDNYTDLVAIQNKAEIEYLEKTLPFSRSYYWIGIRKIGGIWTWVGTNKSLTEEAENWGDGEPNNKKNKEDCVEIYIKRNKDAGKWNDDACHKLKAALCYTASCQPWSCSGHGECVEIINNYTCNCDVGYYGPQCQFVIQCEPLEAPELGTMDCTHPLGNFSFSSQCAFSCSEGTNLTGIEETTCGPFGNWSSPEPTCQVIQCEPLSAPDLGIMNCSHPLASFSFTSACTFICSEGTELIGKKKTICESSGIWSNPSPICQKLDKSFSMIKEGDYNPLFIPVAVMVTAFSGLAFIIWLARRLKKGKKSKRSMNDPY
B2: HL60 PSGL-1: PSGL-1 immunoprecipitated from HL60 cells (protein)
chain: QATEYEYLDYDFLPETEPPEMLRNSTDTTPLTGPGTPESTTVEPAARRSTGLDAGGAVTELTTELANMGNLSTDSAAMEIQTTQPAATEAQTTQPVPTEAQTTPLAATEAQTTRLTATEAQTTPLAATEAQTTPPAATEAQTTQPTGLEAQTTAPAAMEAQTTAPAAMEAQTTPPAAMEAQTTQTTAMEAQTTAPEATEAQTTQPTATEAQTTPLAAMEALSTEPSATEALSMEPTTKRGLFIPFSVSSVTHKGIPMAASNLSVNYPVGAPDHISVKQCLLAILILALVATIFFVCTVVLAVRLSRKGHMYPVRNYSPTEMVCISSLLPDGGEGPSATANGGLSKAKSPGLTPEPREDREGDDLTLHSFLP
B3: AML (M1) PSGL-1: PSGL-1 immunoprecipitated from AML (M1) blasts (protein)
chain: B2 chain
B4: CD34 (Molecular Control): CD34 (QBend-10) immunoprecipitated from KG1a cells, negative molecular control (protein)
chain: SLDNNGTATPELPTQGTFSNVSTNVSYQETTTPSTLGSTSLHPVSQHGNEATTNITETTVKFTSTSVITSVYGNTNSSVQSQTSVISTVFTTPANVSTPETTLKPSLSPGNVSDLSTTSTSLATSPTKPYTSSSPILSDIKAEIKCSGIREVKLTQGICLEQNKTSSCAEFKKDRGEGLARVLCGEEQADADAGAQVCSLLLAQSEVRPQCLLLVLANRTEISSKLQLMKKHQSDLKKLGILDFTEQDVASHQSYSQKTLIALVTSGALLAVLGITGYFLMNRRSWSPTGERLGEDPYYTENGGGQGYSSGPGTSPEAQGKASVNRGAQENGTGQATSRNGHSARQHVVADTEL

What was measured:
KG1a cells = assay: CHO-E cell rolling on glutaraldehyde-fixed KG1a monolayers; format: cell-based, human; conditions: 2.8 dynes/cm^2; EDTA 5 mM; HECA 452 50 μg/ml
Source text: (§1) E-selectin-mediated adhesive interactions, under defined shear stress, were examined between hematopoietic cell monolayers and suspensions of CHO-E (Chinese hamster ovary cells stably transfected with full-length cDNA encoding human E-selectin) in flow. CHO-E and empty vector constructs (CHO-Mock) were maintained in MEM 10% FBS/1% Penicillin/Streptomycin (Life Technologies, Inc.) and HAM's F-12 (Cellgro, Inc.)/5% FCS/1% Penicillin/Streptomycin, respectively. CHO-E cell tethering and rolling on hematopoietic cell monolayers was visualized by video microscopy in real time using the parallel-plate flow chamber. […] To prepare hematopoietic cell monolayers>90% confluent, suspensions of cells (KG1a, HL60, K562, or RPMI 8402) at 2×10^6/ml RPMI1640 without NaBicarbonate/2% FBS were cytocentrifuged in […] plates at 5×10^6/well and then fixed in 3% glutaraldehyde. Reactive aldehyde groups were blocked in 0.2M lysine, and plated cells were suspended H/H/Ca++. […] The number of CHO-E/Mock cell rolling on each monolayer was measured in one frame of five independent fields under 10× magnification from multiple experiments. A minimum of 3 experiments was performed and results were expressed as the mean±standard deviation.

HL60 cells = assay: CHO-E cell rolling on glutaraldehyde-fixed HL60 monolayers; format: cell-based, human; conditions: 2.8 dynes/cm^2; EDTA 5 mM; HECA 452 50 μg/ml
Source text: as §1

L-selectin = target: T1, L-selectin; assay: Stamper-Woodruff assay, lymphocyte adherence to immunoprecipitated CD44 and PSGL-1; format: cell-based; conditions: 80 rpm; for Mean Number of Bound Lymphocytes: 0.75 μg/spot (PSGL-1 1 μg/spot), 4° C., 100× mag.
Method: These protein spots were then fixed in 3% glutaraldehyde, unreactive aldehyde groups were blocked in 0.2M lysine and slides were kept in RPMI-1640 without NaBicarbonate/2% FBS until ready for testing. Lymphocytes (10^7/ml RPMI-1640 without NaBicarbonate/5% FBS) were overlayed onto these fixed immunoprecipitates and incubated on an orbital shaker at 80 rpm for 30 min. at 4° C. The number of adherent lymphocytes was quantified by light microscopy using an ocular grid under 100× magnification (a minimum of 5 fields/slide, 2 slides/experiment, and 3 separate experiments). Data were presented as the mean number of bound lymphocytes±standard deviation. KG1a CD34 and L-selectin control immunoprecipitates were also tested in this manner. To verify the dependence for sialic acid, glutaraldehyde-fixed spots were treated with Vibrio cholerae neuraminidase (0.1 U/ml RPMI-1640 without NaBicarbonate/2% FBS for lhr at 37° C.).
Immunoaffinity purified material (0.75-3 μg/spot) was spotted onto glass slides for analyses in the Stamper-Woodruff assay (See below for assay description). For autoradiographic analysis of immunoprecipitated [^35S]-methionine-radiolabeled CD44 and PSGL-1, immunoprecipitates were spotted onto glass slides, allowed to dry and exposed Kodak BioMax-MR film for 12 h at −80° C. Densitometric analysis (optical density) of the autoradiograms was performed with a Hewlett-Packard Scanj et 5200C scanner and NIH Image processing and analysis program.

E-selectin [1] = target: T2, E-selectin; assay: Blot rolling assay with CHO-E cells; format: cell-based; conditions: immunoprecipitated CD44 on Western blot; 3.8 dynes/cm^2
Method: The blot rolling assay was performed as previously described (Dimitroff et al., 2000). Briefly, CHO-E, CHO—P or CHO-Mock transfectants were isolated as described above, washed twice in HBSS and suspended at 10^7/ml in HBSS/10 mM HEPES/2mMCaCl2 (H/H/Ca++)/10% glycerol. Western blots of HPC membrane preparations stained with HECA-452 were rendered transparent by incubating them in H/H/Ca++/10% glycerol. The blots were then placed in the parallel-plate flow chamber, and CHO transfectants (2×10^6/ml) were perfused into the chamber. After allowing the cells to come in contact with the blotting membrane, the flow rate was adjusted to exert a shear stress of 3.8 dynes/cm^2. The viscosity of 10% glycerol adhesion assay medium was considered in the calculation of shear stress values. The number of cells rolling on and between each immunostained banding region was quantified under 100× magnification within each field of view on the video monitor using molecular weight markers (Kaleidoscope Molecular Weight Markers, Bio-Rad Lab.; See Blue® from Novex, Inc.) as guides to help align and visualize the apparent molecular weights of the proteins of interest. A minimum of 3 experiments was performed and results were expressed as the mean±SD of cell rolling/field at 100× magnification.

E-selectin [2] = target: T2, E-selectin; assay: CHO-E cell rolling on immobilized immunoprecipitates, parallel-plate flow chamber; format: cell-based; conditions: immunoprecipitates on plastic; 2.8 dynes/cm^2
Method: CD44 was immunoprecipitated from untreated cell lysates or from cell lysates treated with N-glycosidase-F (0.8 U/ml) Vibrio cholerae neuraminidase (0.1 U/ml) or a-L-fucosidase (80 mU/ml), and PSGL-1 was immunoprecipitated from untreated cell lysates as previously described (Sackstein and Dimitroff, 2000; Dimitroff et al., 2000).
CD44 or PSGL-1 immunoprecipitates were spotted onto plastic petri dishes, fixed in 3% glutaraldehyde and incubated in 0.2M lysine to block unreactive aldehyde groups, and then non-specific binding was prevented by incubating in 100% FBS for 1 hr at RT. Fixed spots were also treated with Vibrio cholerae neuraminidase (0.1 U/ml assay medium), which was overlaid onto the spots and incubated at 37° C. for 1 hr. […] The flow rate was then increased to achieve a shear stress of 2.8 dynes/cm^2. The frequency of cells rolling per 100× magnification field was determined, and data were expressed as the mean±standard deviation of 8 fields visualized from a minimum of 3 experiments.

Molecule	Mean Number of Bound Lymphocytes (L-selectin)	E-selectin ligand activity (CHO-E cell rolling) (E-selectin [2])	also measured
O=C(O)CN(CCN(CC(=O)O)CC(=O)O)CC(=O)O [EDTA]	–	–	CHO-E cell rolling / E-selectin ligand activity of KG1a cells (KG1a cells): completely inhibited; CHO-E cell rolling / E-selectin ligand activity of HL60 cells (HL60 cells): completely inhibited
AML (M1) CD44: CD44 (HCELL) immunoprecipitated from blasts of an AML without maturation (M1)	425.3	–	fold higher mean number of lymphocytes bound to CD44 than to PSGL-1 (L-selectin; p<0.001): 3 fold
AML (M1) N-glycosidase-F CD44: N-glycosidase-F-treated CD44 from AML (M1) blasts	23.4	–	–
BMEC-1 CD44: CD44 from human BM endothelial cell line BMEC-1	–	–	E-selectin ligand activity (CHO-E cell rolling) in blot rolling assay (E-selectin [1]): did not possess any E-selectin ligand activity
HL60 CD44: CD44 immunoprecipitated from HL60 cells	6.5	did not support any CHO-E cell rolling	–
K562 CD44: CD44 isolated from K562 cells	–	did not support any CHO-E cell rolling	–
RPMI 8402 CD44: CD44 isolated from RPMI 8402 cells	–	did not support any CHO-E cell rolling	–
a-L-fucosidase-treated KG1a CD44: CD44 immunoprecipitated from a-L-fucosidase-treated KG1a lysate	–	abrogated CHO-E cell rolling	–
B1	0.5	–	–
B2	11.0	–	–
B3	141.5	–	–
B4	4.0	–	–
